According to patent US20170129940A1 (INSTITUTE FOR RESEARCH IN BIOMEDICINE, published 2017):

B1: 8C15 (antibody, V domains shown)
VH: QVQLQESGPGLVKPSETLSLTCTVSGGSIRSYYWSWIRQPPGKGLEWIGHIYYSGNTNYSPSLQSRVTISLDTPKNQFSLRLSSVTAADTAVYYCARHDVIVVRGVFDVWGQGTVVTVSS
VL: QSALTQPASVSGSPGQSITISCTGTSSDIGTYNLVSWYQQHPGKAPKVLIYDGSKRPSGVSSRFSASKSGNTASLTISGLQAEDETDYYCCSYAGTSDFFVVFGGGTKLTVL
B2: 2C12 (antibody, V domains shown)
VH: QITLRESGPTLVKPTQTLTLTCTFSGFSLNTNGVGVGWIRQPPGKALEWLALIYWNGNEGYSPSLKSRLTITKDTSKNQVVLTMTNMDPVDTATYYCVHWPQGLTTVTRLAFDIWGQGTMVTVSS
VL: QSALTQPRSVSGSPGQSVTISCTGTTSDVGRYNFVSWYQQHPGKAPKLLMYDVSQRPSGVPSRFSGSKSGNTASLTISGLQAEDEAVFYCCSYAGGNFFSYVFGTGTKVTVL
B3: 7B13 (antibody, V domains shown)
VH: QVQLVESGGGVVQPGGSLRLSCAASGFSFSNYGMHWVRQAPGKGLEWVALIPSDGNYQYYTDSVKGRFTVSRDNSRNTLYLQMKSLRAEDTARYHCAHLGGGLFDFWGQGTLVTVSS
VL: QSALNQPRSVSGSPGQSVSISCTGSSSDVGGYEFVSWYQHHPGKAPKLIIYDVDKRPSGVPDRFSGSRSGDTASLTISGLQAEDEADYYCYSSADTWVFGGGTKLTVL
B4: 8J16 (antibody, V domains shown)
VH: QVQLQESGPGLVKPSETLSLTCSVSGGFTSSYYWSWIRQAPGKGLEWIGYVYYGESTDYNPSLKSRATISIDTSKNQFSLKLSSVTAADTAVYYCAREVDKRGFDYWGQGALVTVSS
VL: EIVLTQSPGTLSLSPGERATLSCRASQSVSGGYLAWYQQEPGQAPRLVIYGASSRATGIPDRFSASGSGTDFTLTITRLEPEDFAVYYCQQYGRTPLTFGGGTKVEIK
B5: 7I13 (antibody, V domains shown)
VH: QVQLVESGGGVVQPGRSLRLSCAASGFTFSNYGMHWVRQGPGKGLEWVAVISYDASSKYYTDSVQGRFTISRDNSKNTLFLQMNSLRGEDTAVYYCAKALRYLDWFLSDPFDYWGQGTLVTVSS
VL: EIVLTQSPGTLSLSPGERATLSCRASQSVSSDFLAWYQQKPGQAPRLLIYGASSRATGIPDRFSGSGSGTDFTLTISRLEPEDFAVYYCQQYAASPPFGQGTRLEIK
B6: 9I6 (antibody, V domains shown)
VH: EVQLVQSGAEVKKPGESLKISCRESGDTFPAYWIAWVRQMPGKGLEWMGIIYPIDSETTYSPSFQGQVTISADKSINTAYLQWSSLKASDSAIYYCARGTSTGLREAFHIWGQGTMVTVSS
VL: DVVMTQSPLSLAVTLGQPAYISCRSSQSLGYSDGNTYLNWFQQRPGQSPRRLIYEVSNRDSGVPDRFSGSGSGTDFTLKISRVEAEDVGTYYCMQGTHWPPMCSFGQGTKLEIK

Tests used:
[1] = target: T1, hCMV UL128 + UL130 + UL131A (co-expressed in HEK293T cells) (human cytomegalovirus, UniProt P16837 28-171; P16772 1-214; F5HET4 19-129); test: cell-based or functional assay
[2] = target: T1, hCMV UL128 + UL130 + UL131A …; test: cell-based or functional assay; remark: listed apart in the source

T1 sequence (P16837 28-171 limits assumed, one chain of several): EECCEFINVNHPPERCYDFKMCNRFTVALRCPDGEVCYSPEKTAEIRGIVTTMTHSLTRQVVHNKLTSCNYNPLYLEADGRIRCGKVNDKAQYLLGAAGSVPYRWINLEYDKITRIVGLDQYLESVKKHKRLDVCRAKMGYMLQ

Binder | 50% Neutralization ARPE [1] [µg/mL] | 50% Neutralization MRC-9 [1] [µg/mL] | 90% Neutralization ARPE [2] [µg/mL] | 90% Neutralization MRC-9 [2] [µg/mL]
B1 | < 0.001 | > 2 | 0.0025 | > 10
B2 | < 0.01 | ≤ 2 | 0.006 | > 10
B3 | < 0.001 | > 2 | 0.003 | > 10
B4 | < 0.001 | > 2 | 0.0008 | > 10
B5 | < 0.01 | > 2 | 0.008 | > 10
B6 | < 0.001 | > 2 | 0.0007 | > 10
